Target: GAL4 DBD-BEAF-32B (Drosophila)
Test: two-hybrid; GAL4 AD fusions (pOAD) against GAL4 DBD fusions (pOBD2) in yeast; 50 to 100 colonies with both plasmids scored for growth on medium lacking adenine and histidine, with X-α-Gal

Sequence of GAL4 DBD-BEAF-32B (Drosophila) (main, as listed by the source): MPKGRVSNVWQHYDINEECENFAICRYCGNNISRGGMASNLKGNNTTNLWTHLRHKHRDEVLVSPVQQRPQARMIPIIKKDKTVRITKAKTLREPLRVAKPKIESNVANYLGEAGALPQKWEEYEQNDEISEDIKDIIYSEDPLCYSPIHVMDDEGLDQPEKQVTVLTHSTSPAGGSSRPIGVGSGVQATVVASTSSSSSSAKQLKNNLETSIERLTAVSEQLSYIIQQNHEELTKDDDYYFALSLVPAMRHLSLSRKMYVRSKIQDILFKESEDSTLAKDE

% of Y2H colonies expressing the reporter genes: 20%
Substance: GAL4 AD-Pbro BD4–5 (domain or fragment)

Reference: article PMC9635645
